System: human pluripotent stem cells provided at high cell density
Assay: Hematopoietic cell formation in high cell density differentiation culture
Assay type: cell-based
Settings: with 50 ng/ml BMP4
Protocol: FIGS. 1A-1F concern hematopoietic cell differentiation in accord with the invention. […] Cells in high cell density methods of the experiments depicted in this figure were plated at 1.1×10^5 cells/cm^2. Cells in low cell density methods of the experiments depicted in this figure were plated at 1.8×10^4 cells/cm^2. The photographs of FIG. 1B show cell morphology of cells of each culture at day 10. […] The hematopoietic cells could be cryopreserved at day 10 (90% FBS+10% DMSO) and hemangioblasts can be cryopreserved at day 6.
FIG. 2A-2D show Notch and YAP signaling in the low and high density cell cultures. FIGS. 2A-2B show immunostaining of YAP and NICD1 (Notch intra-cellular domain). […] Cells cultured at high density were treated with or without 10 μM DAPT (a Notch inhibitor) from day 2-10.
FIGS. 3A-3E show BMP4 signaling in the low and high density cell cultures. […] Cells were cultured at high density with or without 50 ng/ml BMP4. […] Cells were cultured at low density with or without LDN (a BMP signaling inhibitor).
Cell-cell contact regulates arterial endothelial cells and hemangioblast cell fate determination—Endothelial-to-hematopoietic stem cell transition occurs in aorta-gonad-mesonephros region. We therefore investigated whether human pluripotent stem cell-derived arterial endothelial cells can be reprogrammed into hematopoietic stem cells. […]

B1: BMP4: Bone Morphogenetic Protein 4, added at 50 ng/ml to high density culture (protein, UniProt P12644 293-408, looked up)
Bone morphogenetic protein 4: SPKHHSQRARKKNKNCRRHSLYVDFSDVGWNDWIVAPPGYQAFYCHGDCPFPLADHLNSTNHAIVQTLVNSVNSSIPKACCVPTELSAISMLYLDEYDKVVLKNYQEMVVEGCGCR
With B1 the “hematopoiesis (total hematopoietic cell number, cell morphology at day 10)” value was “promoted hematopoiesis”.

Reference: patent US12497593B2, “Generation of hematopoietic progenitor cells from human pluripotent stem cells” (Wisconsin Alumni Research Foundation, priority 2018, dated 2025)
